The numbers were not newly measured in paper PMC9437947, which cites them from elsewhere.

The data set concerns the target Lys166 (UniProt position 166, RAVKTKIGYPA). Briefly: kinetics. Particulars: H297N mutant turning over S-mandelate in the exchange reaction.

As for “Mandelate racemase H297N mutant (Pseudomonas putida (inferred; organism not stated in the article); H297N)”, the pKa is recorded as ~ 6.
